Measured values published in patent US20210145976A1.
One block for each binder: values may come before it.

Experiments:
[1] = target: human serum albumin (human) (UniProt P02768); assay: screening ELISA
[2] = target: T1, recombinant biotinylated CD71 extracellular domain (Sino Biologics) with an N-terminal 6His tag (human), P02786; assay: screening ELISA
[3] = target: T1, recombinant biotinylated CD71 …; assay: screening ELISA, ratio

T1 sequence (P02786 other isoform, or with tags, fused parts or gaps): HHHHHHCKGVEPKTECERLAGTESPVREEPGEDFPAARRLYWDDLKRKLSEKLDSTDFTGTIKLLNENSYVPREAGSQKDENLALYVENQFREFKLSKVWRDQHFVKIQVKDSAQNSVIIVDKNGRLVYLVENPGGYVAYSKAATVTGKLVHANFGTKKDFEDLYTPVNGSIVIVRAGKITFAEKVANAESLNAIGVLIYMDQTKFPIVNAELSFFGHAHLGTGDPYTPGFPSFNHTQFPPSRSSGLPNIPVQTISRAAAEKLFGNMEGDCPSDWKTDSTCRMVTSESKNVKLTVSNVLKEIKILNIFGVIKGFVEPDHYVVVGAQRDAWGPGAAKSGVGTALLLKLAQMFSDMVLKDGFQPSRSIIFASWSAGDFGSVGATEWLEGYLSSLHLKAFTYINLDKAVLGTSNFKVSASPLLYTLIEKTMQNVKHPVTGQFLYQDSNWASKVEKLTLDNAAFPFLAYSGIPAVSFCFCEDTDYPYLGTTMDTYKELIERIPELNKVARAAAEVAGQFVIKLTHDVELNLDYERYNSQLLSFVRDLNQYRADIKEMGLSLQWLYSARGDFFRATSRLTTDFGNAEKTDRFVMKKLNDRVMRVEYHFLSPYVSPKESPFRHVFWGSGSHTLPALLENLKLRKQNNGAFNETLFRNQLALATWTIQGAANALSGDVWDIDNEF
human serum albumin (human), sequence (P02768 25-609 limits assumed): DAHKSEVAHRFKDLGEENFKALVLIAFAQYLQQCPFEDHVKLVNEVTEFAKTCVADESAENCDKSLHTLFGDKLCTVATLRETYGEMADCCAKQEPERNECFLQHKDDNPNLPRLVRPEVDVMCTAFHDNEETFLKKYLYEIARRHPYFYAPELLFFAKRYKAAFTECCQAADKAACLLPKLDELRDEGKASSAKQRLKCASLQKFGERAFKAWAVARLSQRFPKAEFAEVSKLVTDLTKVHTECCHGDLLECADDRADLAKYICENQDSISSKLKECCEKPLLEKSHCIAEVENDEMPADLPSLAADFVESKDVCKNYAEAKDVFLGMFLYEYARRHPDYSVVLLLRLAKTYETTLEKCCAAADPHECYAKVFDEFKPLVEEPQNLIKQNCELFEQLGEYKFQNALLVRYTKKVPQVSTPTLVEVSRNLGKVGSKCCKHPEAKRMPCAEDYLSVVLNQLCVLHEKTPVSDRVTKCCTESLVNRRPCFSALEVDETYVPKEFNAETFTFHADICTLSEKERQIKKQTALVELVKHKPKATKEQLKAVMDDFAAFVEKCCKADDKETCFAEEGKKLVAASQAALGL

HSA [1]: 18900
B1: SEQ ID NO 82 (designed binder)
chain: MLPAPKNLVVSRVTEDSARLSWTAPDAAFDSFAIAYVEWWKLGEAIVLTVPGSERSYDLTGLKPGTEYVVPIPGVKGGGHSSPLSAIFTT

hCD71 [2]: 446000
hCD71:HSA [3]: 21
B2: SEQ ID NO 280 (designed binder)
chain: MLPAPKNLVVRXVTEDSARLSWTAPDAAFDSFEIEYDEPYRGGEAIVLTVPGSERSYDLTSLKPGTEYPVSIGGVKGGITSDPLSAIFTT
modifications: X: residue not identified in the source; also: C-terminal poly-His tag, letters not given here
